Residue numbers refer to the chain shown, from its start. One block for each binder: values may come before it.
Key:
[1] = target: T1, Human ENTPD1 (NP_001767) expressed on NIH/3T3 cells (human, UniProt P49961 1-510); experiment: flow cytometry, NIH/3T3-ENTPD1 cells
T1 construct: also called NIH/3T3-ENTPD1; CD39
T1 sequence: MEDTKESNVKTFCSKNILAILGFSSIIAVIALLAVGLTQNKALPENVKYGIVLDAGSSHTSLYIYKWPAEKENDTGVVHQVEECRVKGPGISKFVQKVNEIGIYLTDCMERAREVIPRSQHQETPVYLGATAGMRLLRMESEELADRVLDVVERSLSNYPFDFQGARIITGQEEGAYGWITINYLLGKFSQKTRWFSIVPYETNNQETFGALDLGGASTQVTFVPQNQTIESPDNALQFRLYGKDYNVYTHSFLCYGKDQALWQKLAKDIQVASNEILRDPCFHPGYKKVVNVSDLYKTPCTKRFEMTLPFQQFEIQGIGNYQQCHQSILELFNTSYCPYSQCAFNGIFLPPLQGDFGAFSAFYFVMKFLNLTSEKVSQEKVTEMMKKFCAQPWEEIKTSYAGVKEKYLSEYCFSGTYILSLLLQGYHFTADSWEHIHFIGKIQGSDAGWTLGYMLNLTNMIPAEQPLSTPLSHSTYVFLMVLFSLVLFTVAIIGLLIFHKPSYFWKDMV

[2] = target: T2, human ENTPD2 expressed on cells (human, UniProt Q9Y5L3 1-495); experiment: flow cytometry, NIH3T3 human ENTPD2 cells
T2 construct: full-length human ENTPD2 on engineered cells; also called NIH3T3 humanENTPD2; NIH/3T3-hENTPD2
T2 sequence: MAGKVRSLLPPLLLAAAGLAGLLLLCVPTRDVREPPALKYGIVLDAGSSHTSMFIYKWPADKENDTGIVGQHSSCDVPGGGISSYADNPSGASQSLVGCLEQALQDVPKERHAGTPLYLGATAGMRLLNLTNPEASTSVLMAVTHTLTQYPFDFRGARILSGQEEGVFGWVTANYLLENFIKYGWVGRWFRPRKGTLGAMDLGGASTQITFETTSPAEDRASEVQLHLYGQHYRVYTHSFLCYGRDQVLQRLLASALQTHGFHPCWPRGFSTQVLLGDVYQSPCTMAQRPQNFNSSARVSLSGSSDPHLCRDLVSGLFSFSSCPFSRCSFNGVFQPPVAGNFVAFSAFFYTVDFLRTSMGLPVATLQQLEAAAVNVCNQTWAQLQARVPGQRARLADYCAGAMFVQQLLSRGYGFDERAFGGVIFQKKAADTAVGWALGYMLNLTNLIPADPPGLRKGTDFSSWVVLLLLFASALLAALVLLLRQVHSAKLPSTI

[3] = target: T3, recombinant human ENTPD2 extracellular domain (residues 29-462) with C-terminal Avi-His6 tag (human, UniProt Q9Y5L3 29-462, biotinylated on the AviTag in the epitope binning assay); experiment: SPR Biacore, mAb captured, ECD analyte, 25C
T3 construct: also called human ENTPD2 ECD; Human ENTPD2-Avi-His6 protein
Experimental: (§1) Biacore Screening: Affinity was measured by determining the kinetic rate constants using surface plasmon resonance (SPR) on a Biacore T200 or T100 with the T200 sensitivity upgrade instrument (Biacore, GE Healthcare). Antibodies were captured on CM5 sensor chips (Biacore, GE Healthcare) prepared with a mouse anti-human IgG Fc antibody (ThermoFisher catalogue #05-4200) amine coupled to the surface. […] ENTPD2 analytes were allowed to associate for 180 s and dissociate for up to 1800 s depending on the off-rate of the antibody at a flow rate of 30 μL/min. The running buffer was PBS pH 7.2 (prepared from a Corning 10X stock, cat#46-013-CM)+0.05% Tween 20. […] The raw data were analyzed using Biacore T200 Evaluation Software version 1.0 and fit to a 1:1 binding model, with all parameters set to fit globally except for RI, which was set to fit locally.

[4] = target: T4, recombinant cyno ENTPD2 extracellular domain (residues 29-462) with C-terminal Avi-His6 tag (cynomolgus macaque, UniProt Q9Y5L3 29-462 (human entry)); experiment: SPR Biacore, mAb captured, ECD analyte, 25C
T4 construct: also called cynomologus (cyno) ENTPD2 ECD
T4 chain (part 1 of 2): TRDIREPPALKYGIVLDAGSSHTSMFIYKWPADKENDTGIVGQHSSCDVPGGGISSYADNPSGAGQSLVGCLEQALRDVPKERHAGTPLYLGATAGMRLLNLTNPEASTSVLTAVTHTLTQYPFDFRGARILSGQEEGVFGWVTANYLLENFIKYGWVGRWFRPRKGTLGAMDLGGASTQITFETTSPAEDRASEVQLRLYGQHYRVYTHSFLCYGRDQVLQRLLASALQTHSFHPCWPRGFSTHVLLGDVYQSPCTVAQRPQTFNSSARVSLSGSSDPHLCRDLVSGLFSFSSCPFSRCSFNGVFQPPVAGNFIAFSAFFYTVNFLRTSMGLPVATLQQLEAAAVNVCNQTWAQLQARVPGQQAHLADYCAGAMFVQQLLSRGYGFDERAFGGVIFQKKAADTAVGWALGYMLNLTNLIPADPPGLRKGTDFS
T4 chain (part 2 of 2): HHHHHH
Experimental: as §1

[5] = target: T2, human ENTPD2 expressed on cells; experiment: flow cytometry, RKO cells (endogenous ENTPD2)
Experimental: FACS screening: Specific binding of candidate antibodies to endogenously expressed ENTPD2 was assessed by flow cytometry. […] Geometric mean fluorescence intensity was calculated on live single cells using FlowJo software.

[6] = target: T5, recombinant monomeric mouse ENTPD2 extracellular domain (residues 29-462) with His6 tag (mouse, UniProt O55026 29-462); experiment: SPR Biacore
T5 sequence: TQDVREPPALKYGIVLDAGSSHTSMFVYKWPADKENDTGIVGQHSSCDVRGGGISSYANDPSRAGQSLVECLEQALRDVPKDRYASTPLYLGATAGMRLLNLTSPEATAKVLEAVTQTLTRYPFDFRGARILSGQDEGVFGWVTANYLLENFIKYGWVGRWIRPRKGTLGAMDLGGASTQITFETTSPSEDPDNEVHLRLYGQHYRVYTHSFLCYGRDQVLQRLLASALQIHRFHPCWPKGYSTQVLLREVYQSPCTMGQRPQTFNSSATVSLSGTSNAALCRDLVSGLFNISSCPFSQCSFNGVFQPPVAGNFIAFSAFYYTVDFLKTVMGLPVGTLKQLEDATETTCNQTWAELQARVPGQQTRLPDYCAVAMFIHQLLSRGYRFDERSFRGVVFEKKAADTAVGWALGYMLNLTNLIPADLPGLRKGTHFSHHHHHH

binding result [1]: no binding (tested: 50 nM)
EC50 [2]: 0.6 nM
Kd [3]: 0.9 nM
koff [3]: 0.0003 s⁻¹
kon [3]: 380000 M⁻¹ s⁻¹
Kd [4]: 20.9 nM
koff [4]: 0.021 s⁻¹
kon [4]: 990000 M⁻¹ s⁻¹
EC50 [5]: 0.5 nM
Kd [6]: 750 nM
B1: ANTI-HUMAN ENTPD2 MAB9 (antibody, human IgG1, lambda, V domains shown)
VH: QVQLVQSGAEVKKPGSSVKVSCKASGGTFDSYAVSWVRQAPGQGLEWMGRIVPWLGHTQYAQKFQGRVTITADESTSTAYMELSSLRSEDTAVYYCARESPGYRYSFDVWDQGTLVTVSS
VL: SYELTQPLSVSVALGQTARITCSGDAIGEKYVYWYQQKPGQAPVLVIYDDNNRPSGIPERFSGSNSGNTATLTISRAQAGDEADYYCASYDLQQARWVFGGGTKLTVLG
notes: also called Anti-ENTPD2 mAb9

binding result [1]: no binding (tested: 50 nM)
EC50 [2]: 0.8 nM
Kd [3]: 0.8 nM
koff [3]: 0.00024 s⁻¹
kon [3]: 340000 M⁻¹ s⁻¹
Kd [4]: 15.2 nM
koff [4]: 0.018 s⁻¹
kon [4]: 1.2e+06 M⁻¹ s⁻¹
EC50 [5]: 0.6 nM
binding result [6]: binds
B2: ANTI-HUMAN ENTPD2 MAB10 (antibody, human IgG1, lambda, V domains shown)
VH: B1 VH with H57F, Q59R
VL: B1 VL
notes: also called Anti-ENTPD2 mAb10

— patent US20220348651A1 (Novartis, published 2022)
